Series [1] concerns the target BIRC6 (human, wild type, recombinant) (human) (UniProt Q9NR09). The experiment in a line: cryo-EM structure. The note with it: remark: other sources report otherwise.
The target is the same in series [2]. Nature of the series: mass photometry. The note with it: remark: other sources report otherwise.
Series [3] concerns the molecule itself. Nature of the series: cryo-EM structure.

These results are taken from paper doi:10.1101/2022.08.30.505823 (bioRxiv, 2022).

What is called stoichiometry N is a count of units in the complex or per binding partner.

“BIRC6 (human, wild type, recombinant), Q9NR09 1-4857”: the stoichiometry N in series [1] and in series [2] was 2 in each case.

B1: SMAC (natural protein)
chain: AVPIAQKSEPHSLSSEALMRRAVSLVTDSTSTFLSQTTYALIEAITEYTKAVYTLTSLYRQYTSLLGKMNSEEEDEVWQVIIGARAEMTSKHQEYLKLETTWMTAVGLSEMAAEAAYQTGADQASITARNHIQLVKLQVEEVHQLSRKAETKLAEAQIEELRQKTQEEGEERAESEQEAYLRED
For B1, the “stoichiometry N” value in series [3] came to 2.
